± gives the uncertainty stated by the source.

The series is described as follows: amyloid nucleation score (Sup35N fusion, yeast selection) (log enrichment); library NNK1; higher = more nucleation; inactive = no reads after selection. The essentials: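 Yeast lacking psi expressed peptides of 20 random codons fused to Sup35N, received 100 μM copper sulfate for 24 hours, and were then grown for 7 days at 30°C on medium lacking adenine and uracil. Illumina sequencing of input and output plasmid inserts provided the reads. Nucleation scores are DiMSum log enrichments of output over input, centred on the mode of non-aggregating sequences. Any sequence with under 100 input reads was excluded.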
Consider SLFMSYLCRLVHRLLSRKIG, for which the amyloid nucleation score is -0.172 ± 0.28.

SLGPFRDVSCYVVAGIQTVN came in with an amyloid nucleation score of -1.66 ± 2.7. Take SLGVDYDTGSVVYVAGCNCR: the amyloid nucleation score was found to be 0.009 ± 0.46. In the case of SLIMIGIFFYFSLSKQPRSV it was 0.027 ± 1.7; in that of SLKMMIFQRGFYTSIG, 1.75 ± 0.13; in that of SLLCCVLVFSFCFSPFRSSE, 1.52 ± 0.16. SLLIELSFRTGNSEY: the amyloid nucleation score came to 0.152 ± 0.5. Take SLLMRIS: the amyloid nucleation score was -0.434 ± 0.61. Under SLLSYMFQGDDVKCHGSAVL stands 1.01 ± 0.76; under SLMDKMPTIVLELVYHAVQI, 0.018 ± 0.49; under SLNRWGVFLCEVALRLADGR, 0.542 ± 0.85.

As for SLNSPL, the amyloid nucleation score was determined as 0.391 ± 0.85. Under SLSFVVSGMRFAFAGFFMVS stands -0.055 ± 0.21; under SLSPWWIHANPWWPYMSNQV, “inactive”; under SLSTGIAFINLAACVYSKLT, 2.85 ± 0.18. In turn, SLVAGVVFVFMYRVPKIGLV returned an amyloid nucleation score of -0.807 ± 1.2. Under SLWNDFHMVAVYLVTLSSVD stands 0.895 ± 0.79.

SLWNSCSSE returned an amyloid nucleation score of 4.68 ± 0.064. Under SLYFFLFRCVCKRLYSGWNV stands -0.481 ± 1; under SLYVKWSQILLPLVLYVWYY, 0.232 ± 0.45.

For SMEIYLDFMNVCSKMVNASG, the amyloid nucleation score is -0.093 ± 0.3.

Take SMFKGTIWRQHSLS: the amyloid nucleation score worked out at 0.618 ± 0.85.

As for SMGLKPGEVCLNKDFDSH, the amyloid nucleation score is 0.036 ± 1.2. Under SMKCRNGILWFQRLVYLLLS stands -0.747 ± 0.56; under SMLLSRKHCGGVNEKHFM, -0.311 ± 0.35; under SMMEAFDPKYAVSWSVESLT, 1.26 ± 0.67.

SMRSNWPGYCTRNGFTLSLL registered an amyloid nucleation score of -0.684 ± 0.32. Under SMSPVSSVTN stands 0.07 ± 0.35.

SMVKRSSVVYGLSRGSIKER came in with an amyloid nucleation score of 1.08 ± 0.69. On to SNCLDMTVTAW, for which the amyloid nucleation score entry was “inactive”. In the case of SNDTLS it was 0.265 ± 0.39; in that of SNEVYWQ, 1.25 ± 0.3; in that of SNEYYPSLHYRVSVGKGLGR, -0.154 ± 1.2. Substance SNFSG had an amyloid nucleation score of 0.446 ± 0.66. In the case of SNGHNAILVA it was “inactive”; in that of SNIFNMGY, 0.187 ± 0.35.

As to SNKTSKDGCEFQVVQLVQRV, the amyloid nucleation score was -0.059 ± 0.33.

For SNLVGEVYCNL, the amyloid nucleation score is 0.914 ± 0.57. Under SNMNAFYTLEHVMPAKFEIS stands 1.07 ± 0.33; under SNQSDLMLLMENMIDYMKSL, 1.32 ± 0.39; under SNQTLPWYK, 0.043 ± 0.53. In turn, SNSSMWAYRVC gave an amyloid nucleation score of 0.497 ± 0.74.

Take SNVVNGLDTYSQPGKGWCVR: the amyloid nucleation score stood at 0.581 ± 0.37. Under SPMMVNVYATDDVDLPSWLM stands -0.293 ± 0.47; under SPRYQSVWEFVSFQDCTSRW, 0.118 ± 1.2. Turning to SQNVPDCVLKTLRFDVPCCR, the amyloid nucleation score was 1.14 ± 0.4. Consider SQRSMRRRRVRVIKDARYNW, for which the amyloid nucleation score was determined as 0.224 ± 0.48. Substance SRCNHICHNYISMFLINCEL gave an amyloid nucleation score of 5.71 ± 0.061. In the case of SRCRGSYTSSNSYWPAGDPM it was -0.777 ± 1.7. SRDRKVYLAYVYVYTRNVQT yielded an amyloid nucleation score of 0.683 ± 0.34. Regarding SRGPRFDCPMLVTVPSTSLE, the amyloid nucleation score is -1.1 ± 2.4. In the case of SRHVLLPISFGTV it was 0.377 ± 0.61; in that of SRIAMS, 0.368 ± 1.

The substance SRLEHRFLICNPELYVNFFM returned an amyloid nucleation score of 6.799 ± 0.047.

The substance SRLMLFQIFDAKQIDVNDM yielded an amyloid nucleation score of 5.03 ± 0.071. In the case of SRLRLGIRTDLG it was 0.218 ± 0.54; in that of SRMWMFFDCIISIINMAEDT, 7.449 ± 0.051.
